What is called Kd is a measure of binding affinity in units of concentration. A high value points to lower affinity. For orientation: koff means the rate constant with which the complex falls apart. Higher therefore signals a short-lived complex. One may read the kon as the rate constant with which the complex forms. Low readings indicate slower complex formation, high ones faster complex formation.

The target in assay [1] is HCV E2 envelope glycoprotein (hepatitis C virus, UniProt P27958 384-746). The assay is described as follows: ELISA of E2 on AP33 alanine mutants. (In general: In an ELISA, binding on a coated surface is turned into a signal by an enzyme label.)
Sequence of HCV E2 envelope glycoprotein (P27958 384-746 limits assumed): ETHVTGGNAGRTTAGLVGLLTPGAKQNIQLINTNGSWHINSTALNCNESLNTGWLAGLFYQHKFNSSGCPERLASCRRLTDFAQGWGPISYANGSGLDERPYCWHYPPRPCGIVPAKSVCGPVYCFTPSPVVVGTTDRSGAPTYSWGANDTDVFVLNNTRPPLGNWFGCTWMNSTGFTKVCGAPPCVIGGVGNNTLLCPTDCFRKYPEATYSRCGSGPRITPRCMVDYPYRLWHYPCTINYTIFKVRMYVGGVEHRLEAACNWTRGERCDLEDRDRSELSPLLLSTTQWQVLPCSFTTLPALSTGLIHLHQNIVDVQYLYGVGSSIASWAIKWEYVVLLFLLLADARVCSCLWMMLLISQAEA
For assay [2], the target named is T1, AP33 antibody (wild type mouse monoclonal).
T1 construct: also called WT AP33; Ab1
Put plainly: SPR, B2.1A scFv amine-coupled to CM4 chip, AP33 injected, single-cycle kinetics.

In assay [3] the target is T1, AP33 antibody (wild type mouse …).
For assay [4] the target is unchanged. Put plainly: SPR, B2.1A scFv amine-coupled to CM5 chip, AP33 injected, single-cycle kinetics. For orientation: SPR reads the build-up and loss of mass on a sensor chip optically.
Another assay addresses T2, AP33 light-chain alone (Mus musculus (Mouse), UniProt P01661 21-131).
T2 construct: also called AP33 LC; LC
The assay is described as follows: Ab2 binding screen.

The target of assay [5] is T1, AP33 antibody (wild type mouse …). Put plainly: Ab2 binding screen.

Where two headings read alike, the source gives them in different places.

B1: AP33 mutant YH50A (antibody, V domains shown)
VH: EVQLQESGPSLVKPSQTLSLTCSVTGDSITSGYWNWIRKFPGNKLEYMGAISYSGSTYYNLSLRSRISITRDTSKNQYYLQLNSVTTEDTATYYCALITTTTYAMDYWGQGTSVTVS
VL: NIVLTQSPVSLAVSLGQRATISCRASESVDGYGNSFLHWFQQKPGQPPKLLIYLASNLNSGVPARFSGSGSRTDFTLTIDPVEADDAATYYCQQNNVDPWTFGGGTKLEIK
As to B1, the “reduction of binding relative to WT AP33” value in assay [1] came out at 90%.

B2: AP33 mutant YH100A (antibody, V domains shown)
VH: EVQLQESGPSLVKPSQTLSLTCSVTGDSITSGYWNWIRKFPGNKLEYMGYISYSGSTYYNLSLRSRISITRDTSKNQYYLQLNSVTTEDTATYYCALITTTTAAMDYWGQGTSVTVS
VL: NIVLTQSPVSLAVSLGQRATISCRASESVDGYGNSFLHWFQQKPGQPPKLLIYLASNLNSGVPARFSGSGSRTDFTLTIDPVEADDAATYYCQQNNVDPWTFGGGTKLEIK
In the case of B2, the “reduction of binding relative to WT AP33” value in assay [1] turned out to be 90%.

B3: B2.1A scFv (scFv)
scFv: DANSQVQLQESGTELVKPGASVKLSCKASGYTFTNYWMHWVKQRPGQGLEWIGEINPSDGHTNYNEKFKSKATLTVDKSSSTAYMQLSSLTSEDSAVYYCARPWAFGNYGAWFAYWGQGTLVTVSAGGSGGSGGGGSGGGGSGGGASDIVMTQSPKFMSTSVGDRVSITCKASQNVRTAVAWYQQKPGQSPKALIYLASSRHTGVPDRFTGSGSGTDFTLTISNVQSEDLADYFCLQHWNYPYTFGGGTKLEIKSRHHHHHH
notes: also called single-chain variable fragment (scFv) of B2.1A; Ab2
With B3, in assay [2], the affinity, expressed as Kd, was 20.7 nM; the koff stood at 0.000243 s⁻¹; the on-rate (kon) amounted to 11800 M⁻¹ s⁻¹. In assay [3], the Kd came out at 8 nM, the koff was 0.00039 s⁻¹ and the kon is 48700 M⁻¹ s⁻¹. In assay [4], the Kd is 28.6 nM, the koff stood at 0.000321 s⁻¹ and the kon is 11200 M⁻¹ s⁻¹.

B4: B2.1A antibody (antibody, V domains shown)
VH: QVQLQESGTELVKPGASVKLSCKASGYTFTNYWMHWVKQRPGQGLEWIGEINPSDGHTNYNEKFKSKATLTVDKSSSTAYMQLSSLTSEDSAVYYCARPWAFGNYGAWFAYWGQGTLVTVSA
VL: DIVMTQSPKFMSTSVGDRVSITCKASQNVRTAVAWYQQKPGQSPKALIYLASSRHTGVPDRFTGSGSGTDFTLTISNVQSEDLADYFCLQHWNYPYTFGGGTKLEIKR
notes: also called anti-Id B2.1A; Ab2
In the case of B4, the binding result in the assay with AP33 light-chain alone is “no binding”; in assay [5] it was “binds”.

The record behind these values is patent US20170283484A1 (UNITED KINGDOM RESEARCH AND INNOVATION, published 2017).
